The source of these data is a protein production outcome set (Wang et al. 2014).

The data set is described as follows: label from the status in PepcDB records.
On to “MNVAILLAAGKGERMSENVPKQFLEIEGRMLFEYPLSTFLKSEAIDGVVIVTRREWFEVVEKRVFHEKVLGIVEGGDTRSQSVRSALEFLEKFSPSYVLVHDSARPFLRKKHVSEVLRRARETGAATLALKNSDALVRVENDRIEYIPRKGVYRILTPQAFSYEILKKAHENGGEWADDTEPVQKLGVKIALVEGDPLCFKVTFKEDLELARIIAREWERIP”, for which the protein production result is on record as “not failed”.
The entry for “MLFWGSAFNAMSYVIQYMPPLSAAAERFTIASLGLFILFAAIGKLRWAALRQNLAIYLIIGIIGIAGFNLGCFYGLQTTSAVNGALIMATTPLITLLLTILLDGEKLTLNKSIGVVFGLSGVLFVISHGHISTLLHLKIAIGDLFILLGGVSFCLANMLSRRYVKNATPLETTTFSMMSGALTLIILSVIFEHPSQAIAMAPITAHLAMGYVIICSTMIAYLFWFNGIQKLGAGRASIFFNFVPVFSMLVALLAGQSLNIWQLIGTALVMLGVMSSGGFIQIKRPTLIAKPCTK” is “failed”.
The entry for “MGHHHHHHSHCSSCSTPLYDQGGPVEILPFLYLGSAYHASRKDMLDALGITALINVSANCPNHFEGHYQYKSIPVEDNHKADISSWFNEAIDFIDSIKNAGGRVFVHCQAGISRSATICLAYLMRTNRVKLDEAFEFVKQRRSIISPNFSFMGQLLQFESQVLAPHCSAEAGSPAMAVLDRGTSTTTVFNFPVSIPVHSTNSALSYLQSPITTSPSC” is “failed”.
Take “MVKNGIILGKRYEVISKIGAGGMADVYKGKDHMLNRYVAIKVLKKEFKEDENFVRKFRSEAQAAAGLIHPNVVNVYDVGEDRGLYYMVMELVEGITLKEYIDKKGRLSHKETISIAIQMCTGIGVAHAANIIHRDIKPQNIIISKDGKVKVTDFGIAKATTSNTISSNAMGSVHYTSPEQARGGFSDQKSDIYSIGITLYEMVTGQVPFDGDSTVSVAIKHLQEEITPPSEIVPDIPYSLEQIILKCTQKNGERRYRNTGELIQDLKRSLVDPDGDFVVIPPLGNADTVIITDEELDDIRSSYDDEEEFDEYDEDEYGDEEEFDEYDEDDDEYDEYDDDEEYGGKGKKGKSSDDVNPRMKKVMKILTIVVAIIIVFILVFAIGKAAGIFKGGFGIDTVDTDEKTKVKVPNVVGMTEDEAKKTLNKKGLGFKVVAREESKKYEEGTVSKQKTEAGKRVAKNTTIQVVVSSGLVGDEITVPNVSNMSESEAQKALEDAGFEKITSDFAYSDSVAEGDVIGTTPAANARATKDTEIVMKVSKGSEKKTVPNVVGQQDGDAQNAITAAGLTVGTVTYEYYDDVPKGQVVSQTVAGGKKVAPGTSVGLTISSGPKPPEKVSVPPVTGISIEEARALLDGVGLKADIKYDSETVGTVGQVIKCNPGVGTQVDEGSTVTLIVISKSSQPDGGETESTQ”: the protein production result was “failed”.
The same measure for “MDSQTGVTRRRLLLGLGSGLGLLGGGGAYVYWSLQGDSGEYTAPNSQPVVTTRGLLDSAEEPAAETEGAWSFDDASEVFLFVHGFSTDAETARDNAYTAQLALGEYTSAPVVAYSWDSDVEWEQAKDNAVANRTLLAQWLMEWAETDGRPVHVLAHSLGARVTGETLRVLAEQGATDVLASVSLLGGAIPYDSVVQGGRYGDAIEAVDAPVSNFYSQNDKVLSWVYRASDRTHAVGHAGTRDAGPLPDGYQDVNVTDLVADHYSYFEPGEGCLARVVAEIE”: “failed”.
Regarding “LKPERVITKNSGASLIDLGDDVALLEFHSPNNSIGFDVVQMINKAVDEVEANYKGLVIGNQGKNFCVGANLMMILMEAQDDNFFEIDMVVRQFQQAMAKIRYSQKPVVSAPFAMTLGGGTEICLPTASIQASLETYMGLVEVGVGVIPGGGGNKELYLRHLERLPEGANIDLQSIANKTFETIAMAKVSTSAHEAMENGFLSERDGVVVNGDHLLYQAKQQVIHLHDAG”, the protein production result is on record as “failed”.
On to “MNGDFYVDTTCIDCDTCRWMTPEVFHRVDEMSAVYHQPTNETERLAALQALLSCPTSSIGTVEKLEHHHHHH”, for which the protein production entry is given as “failed”.
Consider “VEIRTGEFEDIAGITDIFNFYIEHTNARFEEFPFTLENREEWFSQFSRTTKYQIYVAVENGVLQGFACSQKYRAIPAFDDTVEVSVYLAQEAKGKGLGSKLYTQLFSSIRAYGVHRILSGVALPNDASVALHKRFGFREVGIFNEYAKKHGQYISSVWLEKALNVESAL”, for which the protein production entry was “failed”.
With “MLSKFIKTTLATSLLITLSACSNLKSPVPPAKKADQEKLYESTKNYNALIAMYRADLKHFKDPMTQFKLAKSYYHIGDSKSSVLYLKPLRFTKQPFNNEIELLYIRNLIQLGKYQEAQTVATDLIKMSPQNSEAYNLRGISSAQQGELAKAEQDMNKARELFINDVVAINNIAMLNILNNDYRNAVNLLLPQYLNGSKDSRLIHNLVFALVKSGDIDYATDIIRKESLYASPEDLINALKNTEKAPKVGR”, the protein production result is recorded as “failed”.
The same measure for “MIMIDLSLIWIVIIAVGVFIYIVLDGFDLGIGILFPFIKDQHERDVMMNTVAPVWDGNETWMVLGGAGLFAAFPMVYSAVLSALYLPIILMVIALIFRGVAFEFRFKANRTKHLWDAAFIGGSIISSFLQGVILGAYIQGIHIVDGRYAGGGLDWLTPFSLFTGVGVVVVYAALGCGWLIMKTDHRLQLNMYSLMPKLMYALLIIFVCVSIYTPLSQPQIAARWFTQPQLTYFSPVPILVVIFTFLTVRACSKRQESMPFLYTLALVFLAYTGFLISIFPYIIPPSVTIWDAAAPANSQLFALIGALILIPIIIMYTIMAYWVFRDKVRVGDEGYH”: “failed”; for “MQQLSFLPGEMTPGERSLILRALQTLDRHXHEPGVAFTSTRAAREWLILNMAGLEREEFRVLYLNNQNQLIAGETXFTGTINRTEVHPREVIKRALYHNAAAVVLAHNHPSGEVTPSKADRLITERLVQALGLVDIRVPDHLIVGGNQVFSFAEHGLL”: “failed”.
